{"source": "paper PMC4823666", "about": "“Characterization of a temperature-responsive two component regulatory system from the Antarctic archaeon, Methanococcoides burtonii” (Scientific Reports, 2016)", "proteins": {"B1": {"name": "LtrK (low temperature responsive sensor kinase, Mbur_0694), soluble cytoplasmic domain, residues 323-592 (domain or fragment, Methanococcoides burtonii, UniProt Q12Y17 323-592, looked up)", "chain": "NKTLEDEVKSKTSELERSNDYLQNANKKLKELDRLKNDFVSMVSHELKTPLTAMKTSSEFLRESECSREIKEEMLDLIIRNIDRQARMVDDLLDISRIESGKMKFTPEDVNIKEIIEISLHNVTKHAKDKSIKIMVNCPDDVPAISTDKDKLIRIFVNLLTNAIKFTPEEGEVTVIVEDHEDYLQTSIKDNGIGILEEKRDKIFDKFYQVDSTATRKAGGTGLGLAIIKGIIDGQGGKIYLESETGKGSTFTFRLPKELKEDDFTEIEGT", "notes": "LtrK (Mbur_0694) sensor kinase of Methanococcoides burtonii, cytoplasmic domain (HisKA and HATPase domains), residues 323-592; the N-terminal region with the transmembrane domains was deleted; A Tev site lies between GST and LtrK; Both the GST fusion (~59 kDa) and the GST-cleaved protein (~31 kDa) were purified; also called GST-LtrK; SK; source: E. coli BL21 (DE3), solubilised with Triton X-100 …"}}, "target": "the molecule itself", "test": "SEC; purified LtrK cytoplasmic domain; oligomeric state by size exclusion chromatography; data not shown"}
{"protein": "B1", "values": [{"measurement": "stoichiometry N", "value": 2}]}
